Measured values taken from the supplement of paper PMC9170038.

Columns and labels:
[1] = test system: MS2 coat protein; assay: apparent KD of MS2 coat protein; designed switch direction (-1 OFF switch, 1 ON switch): 1; higher = weaker reporter binding; conditions: Eterna round: R98
Method: (§1)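 RNA-MaP: designed FMN/MS2 RNA switches (84 nt design region) are transcribed on-chip within common flanks and titrated with SNAP-549-labelled MS2 coat protein (about 1-3000 nM) in 100 mM Tris pH 7.5, 80 mM KCl, 4 mM MgCl2, without or with 200 uM FMN. Median apparent KD per design; activation ratio = KD,OFF / KD,ON.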

[2] = test system: MS2 coat protein; assay: apparent KD of MS2 coat protein; designed switch direction (-1 OFF switch, 1 ON switch): -1; higher = weaker reporter binding; conditions: Eterna round: R98
Method: as §1

[3] = test system: MS2 coat protein; assay: apparent KD of MS2 coat protein; higher = weaker reporter binding; conditions: Eterna round: R101
Method: as §1

Sequence	apparent KD of MS2 coat protein ([1]; input ligand: FMN 200 uM)	apparent KD of MS2 coat protein ([1]; input ligand: none)	other results
AAAACAUGAGGAUCACCCAUGUAAAGAUCGGUUAAUAGAAGUGAGGAUAUACUAAAUUUUAGGUAGUAGAAGGCACUGGGUACA [JR_SSNG3_Sub034]	0.0281 µM	0.0231 µM	–
AAAUAAAAUAUAGGAUAUGGAAACAUGAGGAUCACCCAUGUAAAAUAAGAUAAAUAAUAAUAUAGCCAGAAGGAUAAAAUAUAA [LRO004_SS NG 2]	0.0345 µM	0.0276 µM	–
AGACUCAGAUGGUGCCAGCUUGCACAUGAGGAUCACCCAUGUCAGGAUAUCUUCGCUCCGGGAGAAGAGAAGGGACAAGAAAUU [Anenan]	–	–	apparent KD of MS2 coat protein ([2]; input ligand: FMN 200 uM): 0.165 µM; apparent KD of MS2 coat protein ([2]; input ligand: none): 0.104 µM
CACCGUUACAGAGGAUAUGACACAUGAGGAUCACCCAUGUAAUAAAUGAGAAUUUCGAAUGUAACUCAGAAGGCUGGAAUCGGC [JieuxMod 1 - Jieux - Exclusion NG 2]	–	–	apparent KD of MS2 coat protein ([2]; input ligand: FMN 200 uM): 0.0616 µM; apparent KD of MS2 coat protein ([2]; input ligand: none): 0.0259 µM
CCGGGCCCGGGAGGAUAUACAUGAGGAUCACCCAUGUAUUCUCGGCCCGGCGAAAGCCGGGCCAUGUAGAAGGCCCGGGCCCGG [high melting point]	–	–	apparent KD of MS2 coat protein ([2]; input ligand: FMN 200 uM): 0.103 µM; apparent KD of MS2 coat protein ([2]; input ligand: none): 0.0243 µM
CCUUGAUAAUAUCUUCACAUGAGGAUCACCCAUGUCGCUCGACAGGAUAUAUUUUAUUUGUUUAAGUAGAAGGGUCGCAGAUUC [LRO020_SS NG 3]	0.142 µM	0.136 µM	–
CGAGACACUUGAGGAUAUGCUCAGGAUAACUGAGCAGAAGGCAGGGAAACCUGAGGAUCACCCAGGUAACUGGAAAGUCUCGAA [Same State NG1 - A3C, U17G Submission 5B]	0.0463 µM	0.144 µM	–
GCAGAAGGUGCGGAGGAUCACCCUGUAAGGAUAUGCAUUAGCAAGGAUAUACAGAGGAUCACCCUGUAGAAGGUGCACUAUUCU [pwkr2 ssNG3 DX.4]	1.23 µM	1.45 µM	–
GCGGGAUGAGUCGUUGGUUCACAUGAGGAUCACCCAUGUAGGGAGGAUAUGCAUCUGGUCCCGGAGCAGAAGGCCCUGCAUCGA [Raedxea]	–	–	apparent KD of MS2 coat protein ([2]; input ligand: FMN 200 uM): 1.54 µM; apparent KD of MS2 coat protein ([2]; input ligand: none): 0.555 µM
GCUGCUAUCGCAGGAUAUUACAUGGGAAAUAAUACAUGAGGAUCACCCAUGUAAAAUAUCGUAAAUAAGAAGGGCGAUAGCAGC [Lame State 4 - Jieux - Same State NG 2]	0.239 µM	1.21 µM	–
GCUUGCGACGAAGGAUAUGGGUGCCUAAACACGAGGAUCACCCGUGUACAGGAAGCUAAAUGCUCUCAGAAGGUCGUCGCAGGC [United States 10 - Jieux - Same State NG 2]	0.0184 µM	0.036 µM	–
GGAGACCUCACAGGAUAUGCUGGACUUUGUCCAGCAGAAGGGUGAACAUGAGGAUCACCCAUGUAAAUGGUCUCCAAAUUUAAU [Denovo 55]	0.0334 µM	0.389 µM	–
GGAGGUCACAUUUACAUGAGGAUCACCCAUGUCGAAAGACAUGAGGAUAUGCUACCUAAUUGGUAGCAGAAGGCAUGGACCUCC [Mat - Same State NG 3 - JL Mod - D28]	0.226 µM	0.287 µM	–
GUACGGAUCAUAGGAUAUCUGCCGGCCGGAGUUAGAGAAGGGUGAUCUAGGAUGCCACAUGAGGAUCACCCAUGUCAACAUCGC [Vemati]	0.0209 µM	0.0242 µM	–
GUAGCUAUCGGAGGAUAUUCAUACCGGAAACGGACAUGAGGAUCACCCAUGUGGCGAAAGCCUUGGGAGAAGGCCGAUAGCUAC [#DoubleMagnetSystem - jl-sng2-2.23 Eli mod] (puzzle (switch architecture): Same State NG 2)	–	–	apparent KD of MS2 coat protein ([3]; input ligand: FMN 200 uM): 0.00749 µM; apparent KD of MS2 coat protein ([3]; input ligand: none): 0.215 µM
GUCAGGAAUGUAGGAUAUCGUCAGGAAUACUGGCGAGAAGGACAUGAGGAUCACCCAUGUAAAAUGAAAGAUAAUAAACCUGGC [Exclsuion NG 1/2-C1]	–	–	apparent KD of MS2 coat protein ([2]; input ligand: FMN 200 uM): 0.0319 µM; apparent KD of MS2 coat protein ([2]; input ligand: none): 0.0187 µM
GUGCCUUGGGAGAAGGAUAAUUAAUAAUAAAUAAAAGGAUAUUCAUACCGGAAACGGACAUGAGGAUCACCCAUGUGGCACAAA (puzzle (switch architecture): Inverted Same State NG 1)	–	–	apparent KD of MS2 coat protein ([3]; input ligand: FMN 200 uM): 0.0454 µM; apparent KD of MS2 coat protein ([3]; input ligand: none): 0.186 µM
GUGCGAGCCACAGGAUAUCUACAGAUUUUUUGUAGAGAAGGGUGACCUCGUGCACCACAUGAGGAUCACCCAUGUAACUAGGCG [Bianeren]	0.0245 µM	0.0821 µM	–
UAUUAAAGGUGAGGAUAUGCACAGGAUCACCGUGUAGAAGGCAUCAGGUAGAAGGUGCAGAGGAUCACCCUGUAAGGAUAUAUC [pwkr2 ssNG1 DX.10]	0.191 µM	1.08 µM	–
UAUUAUAUAUAGAAGGACAUGAGGAUCACCCAUGUCGCCGGGCCCGGGAAACCGGGCCCGGCCAUGUAGGAUAUAUAUAUAGUA [#This is a good prank 9] (puzzle (switch architecture): Inverted Exclusion NG 2)	–	–	apparent KD of MS2 coat protein ([3]; input ligand: FMN 200 uM): 0.00772 µM; apparent KD of MS2 coat protein ([3]; input ligand: none): 0.00535 µM
UCAGUAGAGUCAGGAUAUACAAAAGGCGGUCCAUACAUGAGGAUCACCCAUGUAGAAGGGACUCUACUGUAAGUCGGAAACGAC [#StaticStemDeletion - Eli x2 4.005] (puzzle (switch architecture): Small Loop Exclusion NG 1)	–	–	apparent KD of MS2 coat protein ([3]; input ligand: FMN 200 uM): 0.0156 µM; apparent KD of MS2 coat protein ([3]; input ligand: none): 0.329 µM
UCGAACGGAAACAAAGUCAAUAGACAUGAGGAUCACCCAUGUAAGGAUAUGCCUACUAAAAGUAGGCAGAAGGUACGCGUUCGA [Contusion 5 - Jieux - Exclusion NG 3]	–	–	apparent KD of MS2 coat protein ([2]; input ligand: FMN 200 uM): 0.0272 µM; apparent KD of MS2 coat protein ([2]; input ligand: none): 0.0183 µM
UCGGUUUUCGCAGGAUAUGGAGGAUAUUCCCACAUGAGCAUCAGCCAUGUCUGCAUGGAAGAAGGCCAGAAGGGCGAGAACCGA [United States 1 - Jieux - Same State NG 2]	0.0111 µM	0.0136 µM	–
UGAUCGCUUGGAGGAUAUCCAACUAUCCUAGUUGGAGAAGGCCAAGCUACAGAGCUAAGCUUGGAAGUCACUUCCGAUCAACAC [pwkr ssNG1 F9.4.2]	0.0549 µM	0.0336 µM	–
UUAUAAAAUAUAGGAUAUGGAAACAUGAGGAUCACCCAUGUAUGAUAAGAUAAAUUAUGAUAUAGCCAGAAGGAUACAAUAUAU [LRO011_SS NG 2]	0.0289 µM	0.028 µM	–
UUAUAAUUAAGAGGAUAUAUACAACAUGAGGAUCACCCAUGUACCCAUGUAGUAGAAGGCUUAUUUUUAUAUAAUAAUAUAAUU [AstrosLoopssng1#9] (puzzle (switch architecture): Small Loop Same State NG 1)	–	–	apparent KD of MS2 coat protein ([3]; input ligand: FMN 200 uM): 0.04 µM; apparent KD of MS2 coat protein ([3]; input ligand: none): 0.148 µM
UUAUUAUGUGUAGGAUAUGCGUAUUAUUAUUAUGCAGAAGGACAUGAGGAUCACCCAUGUAUAUUAUUAUUAUAUAUUAUAUAU (puzzle (switch architecture): Exclusion NG 1)	–	–	apparent KD of MS2 coat protein ([3]; input ligand: FMN 200 uM): 0.0191 µM; apparent KD of MS2 coat protein ([3]; input ligand: none): 0.0147 µM
UUUUUAUUUAUAGGAUAUGGAGACAUGAGGAUCACCCAUGUAUGAUAAGAUAAAUUAUGAUGUGGCCAGAAGGAUAUUAUUUUU [LRO018_SS NG 2]	0.0855 µM	0.0764 µM	–
